From article PMC13391367

Legend:
UAP56 (10×His–3C–UAP56) = UAP56 (10×His–3C–UAP56) (UniProt Q13838)
[1] = molecular target: LENG8–PS^M (10×His–MBP–LENG8^491–800, 3×V5–PCID2, SEM1) (human) (UniProt Q96PV6); experiment: grating-coupled interferometry; V5-tagged LENG8–PS^M or SAC3D1–PS^M captured on an amine-coupled anti-V5 antibody (Creoptix WAVE, 4PCP chip); UAP56 injected as a 1:2 dilution series from 5 µM, with or without 200 µM 15U RNA, 25 mM HEPES pH 7.9, 50 mM KCl, 1 mM MgCl2, 1 mM TCEP, with and without 1 mM ATP, 25 °C; one-to-one model
[2] = molecular target: SAC3D1–PS^M (10×His–MBP–SAC3D1^48–404, 3×V5–PCID2, SEM1) (human) (UniProt A6NKF1); experiment: as above

Sequence of UAP56 (10×His–3C–UAP56) (Q13838 whole entry): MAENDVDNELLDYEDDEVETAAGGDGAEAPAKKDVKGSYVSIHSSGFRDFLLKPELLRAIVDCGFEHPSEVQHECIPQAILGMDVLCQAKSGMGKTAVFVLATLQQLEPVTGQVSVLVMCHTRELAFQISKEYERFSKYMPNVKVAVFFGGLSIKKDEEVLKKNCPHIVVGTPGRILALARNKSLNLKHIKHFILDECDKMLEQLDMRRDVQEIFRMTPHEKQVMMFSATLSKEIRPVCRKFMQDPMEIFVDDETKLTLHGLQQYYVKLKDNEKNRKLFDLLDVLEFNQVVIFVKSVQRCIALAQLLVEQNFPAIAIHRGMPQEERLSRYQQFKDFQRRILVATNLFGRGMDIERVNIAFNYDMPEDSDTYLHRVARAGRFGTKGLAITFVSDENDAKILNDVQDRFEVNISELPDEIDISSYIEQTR
Sequence of UAP56(Δ1–43) (10×His–3C–UAP56(Δ1–43), residues 44–428) (Q13838 44-428, stated change not applied): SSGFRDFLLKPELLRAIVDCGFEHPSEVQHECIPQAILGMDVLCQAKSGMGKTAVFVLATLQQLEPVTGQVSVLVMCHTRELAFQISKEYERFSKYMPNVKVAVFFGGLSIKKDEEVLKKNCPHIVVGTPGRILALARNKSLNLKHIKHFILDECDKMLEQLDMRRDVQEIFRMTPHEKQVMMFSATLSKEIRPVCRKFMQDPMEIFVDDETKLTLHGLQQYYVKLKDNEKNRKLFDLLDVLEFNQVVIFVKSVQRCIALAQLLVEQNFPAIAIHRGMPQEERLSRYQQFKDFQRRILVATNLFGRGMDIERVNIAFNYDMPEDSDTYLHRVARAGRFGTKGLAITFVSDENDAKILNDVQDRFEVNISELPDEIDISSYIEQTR

fold stimulation of the apparent ATPase rate of UAP56 with RNA and ATP (NADH-coupled assay) (UAP56 (10×His–3C–UAP56)) | fold reduction of affinity against UAP56 [1] | fold reduction of affinity against UAP56 [2] | Substance
290 fold | – | – | LENG8–PS^M (10×His–MBP–LENG8^491–800, 3×V5–PCID2, SEM1) (from UniProt Q96PV6 491-800; Q5JVF3 1-399; P60896 1-70) (complex)
60 fold | – | – | SAC3D1–PS^M (10×His–MBP–SAC3D1^48–404, 3×V5–PCID2, SEM1) (from UniProt A6NKF1 48-404; Q5JVF3 1-399; P60896 1-70) (complex)
– | > 30 fold | > 30 fold | UAP56(Δ1–43) (10×His–3C–UAP56(Δ1–43), residues 44–428) (from UniProt Q13838 44-428) (domain or fragment)
